Assay results as given in the supplement of paper PMC10724198.
± gives the standard deviation of the averaged measurements.

System: Saccharomyces cerevisiae
Experiment: protein stability index of tFT-peptide fusion (C-terminal peptide) (PSI (0-1 scale)); higher = more stable (slower turnover)
Details: genetic background: wild type; temperature: 30 C
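Note: PSI is a weighted mean of sequencing reads over stability bins, variants kept only with over 10 reads, mCherry proximal and sfGFP distal, peptide attached via GGGS linker.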

Row | Sequence | protein stability index
1 | SLPFSPPTRSSL | 0.758 ± 0.052
2 | SLPPPPLLPRPL | 0.686 ± 0.061
3 | SLPSPIPPPSLL | 0.739 ± 0.29
4 | SLPSSPPPSPPL | 0.7172 ± 0.0043
5 | SLRFLFPSSRFF | 0.664 ± 0.015
6 | SLRLAHSPPDEV | 0.749 ± 0.17
7 | SLRLFIHTIFSR | 0.695 ± 0.061
8 | SLRLPPPRRLPV | 0.658 ± 0.12
9 | SLRMMKTTNAWT | 0.661 ± 0.0077
10 | SLRPPLHSPSPS | 0.674 ± 0.016
11 | SLRPSELFRPLN | 0.724 ± 0.014
12 | SLRSPPPPPGIL | 0.756 ± 0.046
13 | SLSIFLRDALGF | 0.74 ± 0.035
14 | SLSIHPCHFGPS | 0.671 ± 0.03
15 | SLSPGLPPVLLT | 0.666 ± 0.0067
16 | SLSPPLLPPSPP | 0.643 ± 0.018
17 | SLSPPPLSPSPP | 0.627 ± 0.022
18 | SLVCGFAVGGFW | 0.659 ± 0.044
19 | SLVPCFLSFLYP | 0.5752 ± 0.0017
20 | SLVSGPRPPSAF | 0.737 ± 0.089
21 | SLVVSPRQLLPR | 0.704 ± 0.029
22 | SLWWRWQATIRR | 0.714 ± 0.13
23 | SLYERYGRFNSS | 0.656 ± 0.027

Row | Sequence | protein stability index
24 | SLYPRALDFGPM | 0.692 ± 0.033
25 | SLYYPRLVSSSL | 0.732 ± 0.11
26 | SMGGRVGDLACQ | 0.725 ± 0.042
27 | SMSPHKCSVCFC | 0.644 ± 0.045
28 | SMSPPLSLFPSF | 0.841 ± 0.096
29 | SMSSERYIKRGN | 0.702 ± 0.011
30 | SNFRDISLHAAG | 0.684 ± 0.042
31 | SNGVCVGGSESA | 0.674 ± 0.082
32 | SNIDIEAELNKT | 0.728 ± 0.031
33 | SNIEKKKTIKRK | 0.6929 ± 0.0069
34 | SNKGIKNIKKKT | 0.728 ± 0.0084
35 | SNQHKKKNQLRE | 0.693 ± 0.086
36 | SNRASVCKSGKR | 0.6768 ± 0.0017
37 | SNRLIKKKKKRI | 0.715 ± 0.036
38 | SNWLMTYIIRRK | 0.641 ± 0.012
39 | SPAAGGRVGVRR | 0.715 ± 0.021
40 | SPAPIRFLWTIP | 0.59 ± 0.028
41 | SPAPPLSRPPPH | 0.695 ± 0.0081
42 | SPASPPLPAPPP | 0.68 ± 0.032
43 | SPFLPLHRPRML | 0.653 ± 0.018
44 | SPFSPLPSPRPR | 0.723 ± 0.018
45 | SPGCPNRGAFEI | 0.871 ± 0.07
46 | SPHRQIRKRFEK | 0.714 ± 0.026

Row | Sequence | protein stability index
47 | SPITSLSGGTKR | 0.631 ± 0.064
48 | SPKGRVISRRQP | 0.602 ± 0.034
49 | SPLFLVIRLPST | 0.62 ± 0.055
50 | SPLLASPSHLSL | 0.71 ± 0.083
51 | SPLLSSPSPFSL | 0.751 ± 0.095
52 | SPLPPARSVPPP | 0.646 ± 0.067
53 | SPLPPPPPVPLP | 0.652 ± 0.082
54 | SPLPPSPSPPTP | 0.725 ± 0.22
55 | SPLRHIPPLHTP | 0.686 ± 0.1
56 | SPPAPPVSPPPP | 0.744 ± 0.042
57 | SPPAPSLPTFPP | 0.617 ± 0.096
58 | SPPARLLASLSP | 0.798 ± 0.2
59 | SPPCSPSALSHL | 0.728 ± 0.053
60 | SPPHAPPPVPSL | 0.751 ± 0.026
61 | SPPHPAALPSSP | 0.7005 ± 0.0032
62 | SPPILPRGLYSH | 0.637 ± 0.0097
63 | SPPLLPPPSLPP | 0.628 ± 0.0056
64 | SPPLPAPPPPIP | 0.60339 ± 3.2e-05
65 | SPPLPSAPPPPR | 0.664 ± 0.027
66 | SPPLQFLPYPFF | 0.685 ± 0.09
67 | SPPLRTFPVTLP | 0.644 ± 0.1
68 | SPPPALLPPLFP | 0.73 ± 0.064
69 | SPPPFLLPRLFS | 0.639 ± 0.096

Row | Sequence | protein stability index
70 | SPPPISPSLPPL | 0.728 ± 0.029
71 | SPPPNSLPPPPP | 0.7181 ± 0.0043
72 | SPPPPHPPPPAD | 0.651 ± 0.098
73 | SPPPPPLTHSPS | 0.627 ± 0.15
74 | SPPPPPPHPSHP | 0.692 ± 0.027
75 | SPPPPRLPSPTP | 0.744 ± 0.054
76 | SPPPPSPTCPHL | 0.652 ± 0.035
77 | SPPPPTSPRPLT | 0.709 ± 0.0085
78 | SPPPRATLPRPP | 0.689 ± 0.085
79 | SPPPRPLKLFPP | 0.599 ± 0.025
80 | SPPPSPSPPPPL | 0.739 ± 0.049
81 | SPPPSVCPRFPI | 0.761 ± 0.057
82 | SPPRPPSLPPPG | 0.67 ± 0.071
83 | SPPRSRPPPSLQ | 0.679 ± 0.015
84 | SPPSLLATVYFF | 0.7065 ± 0.0015
85 | SPPSPPPPPPPS | 0.691 ± 0.061
86 | SPQKCKSAPSSC | 0.6746 ± 0.0031
87 | SPRGPLVICHHP | 0.745 ± 0.075
88 | SPRHNALHFTLV | 0.644 ± 0.032
89 | SPRLLHPLPSFL | 0.7114 ± 0.0066
90 | SPRLPPPLFLPL | 0.638 ± 0.02
91 | SPRLQAFPGSRA | 0.713 ± 0.032
92 | SPRQARSFLTSS | 0.756 ± 0.026

Row | Sequence | protein stability index
93 | SPSGLPPPLTYP | 0.667 ± 0.034
94 | SPSLLLSFLSFF | 0.665 ± 0.071
95 | SPSLVVRVSFEF | 0.595 ± 0.025
96 | SPSPFRPAPSLH | 0.7048 ± 0.0061
97 | SPSPPPTPGSPP | 0.718 ± 0.15
98 | SPTLPLTRRHPR | 0.718 ± 0.035
99 | SPTNNTSTQSQT | 0.686 ± 0.012
100 | SPTPRLGGPPPI | 0.723 ± 0.015
101 | SPVFSDFLLSLC | 0.642 ± 0.028
102 | SPVFYYCPGYVD | 0.702 ± 0.05
103 | SPVSLLSFRLLL | 0.573 ± 0.022
104 | SPVTDRRKRRNN | 0.666 ± 0.012
105 | SPYLGTYAPVIK | 0.6804 ± 0.0032
106 | SPYLRISGLVFC | 0.557 ± 0.045
107 | SQKNTQLEADGK | 0.661 ± 0.0093
108 | SQLGDGLLGEGV | 0.697 ± 0.044
109 | SQPIRAMILRVP | 0.53 ± 0.00096
110 | SQQFGSILPGEL | 0.694 ± 0.018
111 | SQRRGLLGRFRI | 0.695 ± 0.011
112 | SQTPPPAPSGHH | 0.69 ± 0.099
113 | SRALSPRAPFGN | 0.76 ± 0.15
114 | SRASATTLRLAT | 0.66 ± 0.015
115 | SRASATYLFNLH | 0.622 ± 0.012

Row | Sequence | protein stability index
116 | SRAVTDRGWSPR | 0.68 ± 0.028
117 | SRAYDKSRNISI | 0.731 ± 0.062
118 | SRCIIGILTRNF | 0.6836 ± 0.0035
119 | SRCPLLNGIGFR | 0.6471 ± 0.0025
120 | SRCYKETGKVRE | 0.736 ± 0.0071
121 | SRDSGLIDPRFS | 0.66973 ± 0.00044
122 | SRFIDLLFPSSP | 0.705 ± 0.0074
123 | SRFILSRLPLLS | 0.595 ± 0.065
124 | SRFRKSSGLLLK | 0.758 ± 0.09
125 | SRFSPSLPPFLP | 0.661 ± 0.055
126 | SRGNIPVCEGWS | 0.742 ± 0.028
127 | SRGQSSNEVSPL | 0.637 ± 0.017
128 | SRGTKAERISIG | 0.654 ± 0.013
129 | SRGWLHVVGGQV | 0.6843 ± 0.004
130 | SRKASWECVRGG | 0.699 ± 0.015
131 | SRLGVIRGIGLV | 0.67 ± 0.025
132 | SRLPRGTYRGCP | 0.711 ± 0.076
133 | SRLYGHDLRCRL | 0.777 ± 0.091
134 | SRNVGRWSLRVV | 0.632 ± 0.024
135 | SRPLFLSLFSSV | 0.599 ± 0.14
136 | SRPPPFFPPASP | 0.682 ± 0.01
137 | SRRLSLSSLAFP | 0.723 ± 0.0074
138 | SRRRRGRGEWFG | 0.722 ± 0.019

Row | Sequence | protein stability index
139 | SRSPRSRSRHES | 0.69769 ± 0.00032
140 | SRTNVKVRKTGV | 0.6916 ± 0.0059
141 | SRVARWRSPGCC | 0.6474 ± 0.0012
142 | SRVGWSRLGPGL | 0.68 ± 0.022
143 | SRYVSGGRKRKV | 0.636 ± 0.045
144 | SSCFVIRSLSNP | 0.72 ± 0.14
145 | SSCVSDKLLKNG | 0.695 ± 0.011
146 | SSDNKGLFDTRI | 0.728 ± 0.024
147 | SSFFAFYSRRRF | 0.714 ± 0.052
148 | SSFLAPFRFPLL | 0.675 ± 0.093
149 | SSFLFVPHHYPS | 0.706 ± 0.044
150 | SSFRRFVLVGFE | 0.607 ± 0.011
151 | SSGALLLLTGFM | 0.681 ± 0.013
152 | SSGISEGFERGG | 0.581 ± 0.014
153 | SSGLALGCPLGA | 0.682 ± 0.062
154 | SSGRHCLPCANV | 0.64 ± 0.017
155 | SSLERVHVCPLE | 0.64 ± 0.079
156 | SSLLFVMSYGLL | 0.661 ± 0.027
157 | SSLPDSPLNRER | 0.693 ± 0.038
158 | SSLPLPRVPPPP | 0.717 ± 0.032
159 | SSLSLDERKPRT | 0.712 ± 0.23
160 | SSLVAFPPLPAP | 0.731 ± 0.024
